Data as given in patent publication US20250195677A1.

Target: recombinant His-tagged cynomolgus PD-1 (Acro Biosystems) (cynomolgus) (UniProt B0LAJ3)
Experiment: SPR Carterra LSA, antibody coupled

recombinant His-tagged cynomolgus PD-1 (Acro Biosystems) (cynomolgus), sequence (B0LAJ3 entry or part of it limits assumed): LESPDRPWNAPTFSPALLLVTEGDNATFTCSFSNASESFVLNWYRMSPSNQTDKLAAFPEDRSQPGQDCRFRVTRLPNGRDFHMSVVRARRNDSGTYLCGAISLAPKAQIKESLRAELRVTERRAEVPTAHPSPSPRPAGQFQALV

Row | Substance | Kd [nM]
1 | KEYTRUDA® (pembrolizumab) (antibody) | 0.575
2 | OPDIVO® (nivolumab) (antibody) | 6.4
